Laboratory results: patent publication US20090175886A1 (Bristol-Myers Squibb, published 2009)
“And” between values parts separate entries of the source, which are not always exact repeats. Identical values can stand only once. Values belong to the molecule of their own block, whether it stands above or below them.

Assays:
[1] = target: human CD30 expressed on cells (L540, L428, L1236, Karpas cell lines; activated human peripheral blood cells) (human) (UniProt P28908); experiment: Scatchard analysis, 125I-labelled antibody on L540 cells
[2] = target: human FcRgammaIIIa, Phe^158 allotype (human) (UniProt P08637); experiment: SPR (Biacore): mAb captured on a surface coated with recombinant human CD30, FcRγIIIa Phe158 (CD16-Phe) flowed over, equilibrium signal fitted to a one-site model; Binding Constants (nM)
Chain of human FcRgammaIIIa, Phe^158 allotype (human) (P08637 17-208 limits assumed): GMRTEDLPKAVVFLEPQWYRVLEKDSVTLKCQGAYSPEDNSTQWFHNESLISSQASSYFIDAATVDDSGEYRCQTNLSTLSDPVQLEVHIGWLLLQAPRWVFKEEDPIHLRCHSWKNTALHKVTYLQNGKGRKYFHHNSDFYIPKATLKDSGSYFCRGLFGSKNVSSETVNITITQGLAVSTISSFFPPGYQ

[3] = target: human CD30 expressed on cells (L540, L428, L1236, Karpas cell lines; activated human peripheral blood cells) (human) (UniProt P28908); experiment: flow cytometry on CD30-expressing L540 cells, FITC anti-human secondary antibody
[4] = target: human CD30 expressed on cells (L540, L428, L1236, Karpas cell lines; activated human peripheral blood cells) (human) (UniProt P28908); experiment: Scatchard analysis (Bmax), 125I-labelled antibody on L540 cells
[5] = target: cynomolgus CD30 on PHA, Con A and rIL-2 activated cynomolgus peripheral blood mononuclear cells (cynomolgus monkey); experiment: Scatchard analysis, 125I-labelled antibody on PHA/Con A/IL-2 activated cynomolgus peripheral blood mononuclear cells
[6] = target: human CD30 expressed on cells (L540, L428, L1236, Karpas cell lines; activated human peripheral blood cells) (human) (UniProt P28908); experiment: cell-based or functional assay
[7] = target: human CD30 expressed on cells (L540, L428, L1236, Karpas cell lines; activated human peripheral blood cells) (human) (UniProt P28908); experiment: Scatchard analysis, 125I-labelled antibody on PHA/Con A/IL-2 activated human peripheral blood cells
[8] = target: cynomolgus CD30 on PHA, Con A and rIL-2 activated cynomolgus peripheral blood mononuclear cells (cynomolgus monkey); experiment: Scatchard analysis (Bmax), 125I-labelled antibody on activated cynomolgus peripheral blood mononuclear cells
[9] = target: human FcRgammaIIIa, Val^158 allotype (human) (UniProt P08637); experiment: SPR (Biacore): mAb captured on a surface coated with recombinant human CD30, FcRγIIIa Val158 (CD16-Val) flowed over, equilibrium signal fitted to a one-site model; Binding Constants (nM)
Chain of human FcRgammaIIIa, Val^158 allotype (human) (P08637 17-208 F176V limits assumed): as the sequence (P08637 17-208 limits assumed) above, with F160V counted along it

[10] = target: human CD30 expressed on cells (L540, L428, L1236, Karpas cell lines; activated human peripheral blood cells) (human) (UniProt P28908); experiment: Scatchard analysis (Bmax), 125I-labelled antibody on activated human peripheral blood cells
[11] = target: T1, human CD30 expressed on cells (L540, L428, L1236, Karpas cell lines; activated human peripheral blood cells) (human, UniProt P28908 19-595); experiment: cell-based or functional assay
T1 sequence (looked up): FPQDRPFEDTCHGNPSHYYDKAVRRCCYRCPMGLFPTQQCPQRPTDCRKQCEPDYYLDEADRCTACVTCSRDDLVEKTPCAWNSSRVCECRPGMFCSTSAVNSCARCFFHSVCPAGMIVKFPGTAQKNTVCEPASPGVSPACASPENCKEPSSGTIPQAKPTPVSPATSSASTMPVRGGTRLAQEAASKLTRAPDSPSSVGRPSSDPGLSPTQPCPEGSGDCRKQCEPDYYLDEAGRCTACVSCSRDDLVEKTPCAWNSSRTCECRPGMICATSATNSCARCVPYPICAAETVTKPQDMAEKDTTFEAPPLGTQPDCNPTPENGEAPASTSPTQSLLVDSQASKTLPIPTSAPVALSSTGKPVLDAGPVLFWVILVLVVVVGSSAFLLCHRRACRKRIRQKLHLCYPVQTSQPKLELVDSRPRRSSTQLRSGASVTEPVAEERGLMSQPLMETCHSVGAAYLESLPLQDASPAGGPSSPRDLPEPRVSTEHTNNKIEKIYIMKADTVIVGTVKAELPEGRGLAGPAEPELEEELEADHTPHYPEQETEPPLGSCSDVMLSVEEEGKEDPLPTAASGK

[12] = target: T1, human CD30 expressed on cells (L540, …); experiment: flow cytometry on CD30-expressing L540 cells, FITC anti-human secondary antibody
[13] = target: T1, human CD30 expressed on cells (L540, …); experiment: Scatchard analysis, 125I-labelled antibody on PHA/Con A/IL-2 activated human peripheral blood cells
Procedure: (§1) Human or cynomolgus peripheral blood cells were stimulated with 2 μg/ml PHA, 10 μg/ml Con A, and 50 U/ml rIL-2 and cultured in RPMI1640 media containing 10% fetal bovine serum (FBS) at 1×10⁶ cells/ml density for 3 days. On the day of the study, the cells were washed and adjusted to 2×10⁷ cells/ml in binding buffer (RPMI1640+10% FBS). […] The cells were placed on ice until the initiation of the experiment. Millipore glass fiber filter plates (MAFBNOB50) were coated with 1% nonfat dry milk in water and stored a 4° C. overnight. The plates were washed three times with 0.2 ml of binding buffer. Fifty microliters of buffer alone was added to the maximum binding wells (total binding). Twenty-five microliters of buffer alone was added to the control wells. Varying concentration of ¹²⁵I-anti-CD30 antibody was added to all wells in a volume of 25 μl. Varying concentrations of unlabeled antibody at 300-400 fold excess were added in a volume of 25 μl to control wells (non-specific binding) and 25 μl of CD30 positive L540 cells or stimulated human or cynomolgus peripheral blood cells in binding buffer were added to all wells. The plates were incubated for 2 hours at 200 RPM on a shaker at 4° C. At the completion of the incubation the Millipore plates were washed twice with 0.2 ml of cold wash buffer (RPMI1640, 10% FBS, 500 mM NaCl). The filters were removed and counted in a gamma counter. […]

[14] = target: T1, human CD30 expressed on cells (L540, …); experiment: cell-based or functional assay; remark: listed apart in the source
[15] = target: T1, human CD30 expressed on cells (L540, …); experiment: Scatchard analysis, 125I-labelled antibody on L540 cells
Procedure: as §1

[16] = target: T2, cynomolgus CD30 on PHA, Con A and rIL-2 activated cynomolgus peripheral blood mononuclear cells (cynomolgus monkey, UniProt A0A2K5VW07 29-603); experiment: Scatchard analysis, 125I-labelled antibody on PHA/Con A/IL-2 activated cynomolgus peripheral blood mononuclear cells
T2 construct: whole, on cells
T2 sequence: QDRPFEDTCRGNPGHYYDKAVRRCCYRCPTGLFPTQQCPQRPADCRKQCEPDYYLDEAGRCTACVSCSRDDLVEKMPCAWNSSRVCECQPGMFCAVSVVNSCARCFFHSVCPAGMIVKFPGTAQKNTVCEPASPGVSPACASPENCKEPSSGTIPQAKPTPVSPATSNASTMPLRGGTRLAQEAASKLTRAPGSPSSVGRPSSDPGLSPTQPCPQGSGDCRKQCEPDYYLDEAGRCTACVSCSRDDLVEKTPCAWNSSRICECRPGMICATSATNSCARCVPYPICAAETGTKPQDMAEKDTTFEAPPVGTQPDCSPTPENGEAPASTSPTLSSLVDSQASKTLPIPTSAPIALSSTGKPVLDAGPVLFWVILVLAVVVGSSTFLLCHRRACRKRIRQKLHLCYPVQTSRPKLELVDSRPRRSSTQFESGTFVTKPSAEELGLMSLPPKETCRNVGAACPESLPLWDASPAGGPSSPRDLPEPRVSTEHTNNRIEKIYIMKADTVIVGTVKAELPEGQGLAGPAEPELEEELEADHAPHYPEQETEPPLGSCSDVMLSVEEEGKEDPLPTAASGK
Procedure: as §1

Kd [1]: 1.37 nM
Kd [2]: 1090 nM
EC50 [3]: 0.18 µg/mL
Receptors Per Cell (ave) (receptors per cell) [4]: 2.5e+06
Kd [5]: 0.47 nM
% Lysis, 51Cr release ADCC, Karpas cells, 25 µg/ml antibody, target:effector 1:50 [6]: 19%
% Lysis, 51Cr release ADCC, L428 cells, 25 µg/ml antibody, target:effector 1:50 [6]: 20%
% Lysis, 51Cr release ADCC, L540 cells, 25 µg/ml antibody, target:effector 1:50 [6]: 42%
% Lysis, 51Cr release ADCC, L1236 cells, 25 µg/ml antibody, target:effector 1:50 [6]: 4%
% cell lysis, ADCC, Karpas 299 cells, cynomolgus effector cells, 10 µg/mL antibody [6]: 7% and 10%
EC50 of ADCC, Karpas cells [6]: 0.25 µg/mL
EC50 of ADCC, L428 cells [6]: 0.1 µg/mL
EC50 of ADCC, L540 cells [6]: 0.042 µg/mL
EC50 of ADCC, L540 cells, heterozygous FcRγIIIaPhe/Val^158 human effector cells [6]: 0.0589 µg/mL
EC50 of ADCC, L540 cells, homozygous FcγIIIa Phe/Phe^158 effector cells [6]: 0.0337 µg/mL
EC50 of ADCC, L1236 cells [6]: 1.22 µg/mL
maximal percent cell lysis, ADCC, L540 cells, heterozygous FcRγIIIaPhe/Val^158 human effector cells [6]: 31%
maximal percent cell lysis, ADCC, L540 cells, homozygous FcγIIIa Phe/Phe^158 effector cells [6]: 15%
Kd [7]: 1.08 nM
Receptors Per Cell (ave) (receptors per cell) [8]: 72800
Kd [9]: 177 nM
Receptors Per Cell (ave) (receptors per cell) [10]: 45700
Molecule: fucosylated 5F11 human anti-CD30 monoclonal antibody produced in CHO DG44 cells

Kd [2]: 41 nM
EC50 of ADCC, L540 cells, FcγRIIIa Phe/Phe^158 effector cells [11]: 0.0199 µg/mL
EC50 of ADCC, L540 cells, FcγRIIIa Val/Phe^158 effector cells [11]: 0.0131 µg/mL
fold increase in ADCC activity compared to 5F11 CHO [11]: 20 fold
EC50 [12]: 0.196 µg/mL
B1: 5F11 LEX^Opt mAb (glyco-optimized 5F11 produced in Lemna minor with FucT/XylT RNAi, vector MDXA04) (antibody, V domains shown)
VH: QVQLQQWGAGLLKPSETLSLTCAVYGGSFSAYYWSWIRQPPGKGLEWIGDINHGGGTNYNPSLKSRVTISVDTSKNQFSLKLNSVTAADTAVYYCASLTAYWGQGSLVTVSS
VL: DIQMTQSPTSLSASVGDRVTITCRASQGISSWLTWYQQKPEKAPKSLIYAASSLQSGVPSRFSGSGSGTDFTLTISSLQPEDFATYYCQQYDSYPITFGQGTRLEIK
notes: N-glycans at Asn 297 are 95.8% GnGn (G0), with no fucosyl or xylosyl; also called MDXA04 derived mAb; glyco-optimized anti-CD30 mAb

Kd [13]: 2.66 nM
% Lysis ratio fucosyl-:fucosyl+, ADCC, Karpas cells [14]: 2.63
% Lysis ratio fucosyl-:fucosyl+, ADCC, L428 cells [14]: 2.15
% Lysis ratio fucosyl-:fucosyl+, ADCC, L540 cells [14]: 1.61
% Lysis ratio fucosyl-:fucosyl+, ADCC, L1236 cells [14]: 3.25
EC50 of ADCC, Karpas cells [14]: 0.032 µg/mL
EC50 of ADCC, L428 cells [14]: 0.009 µg/mL
EC50 of ADCC, L540 cells [14]: 0.009 µg/mL
EC50 of ADCC, L1236 cells [14]: 0.045 µg/mL
EC50 ratio fucosyl+:fucosyl-, ADCC, Karpas cells [14]: 7.8
EC50 ratio fucosyl+:fucosyl-, ADCC, L428 cells [14]: 11.1
EC50 ratio fucosyl+:fucosyl-, ADCC, L540 cells [14]: 4.7
EC50 ratio fucosyl+:fucosyl-, ADCC, L1236 cells [14]: 27.1
Kd [15]: 1.93 nM
Kd [16]: 0.83 nM
B2: defucosylated 5F11 human anti-CD30 monoclonal antibody produced in Ms704 (FUT8-/-) cells (antibody, V domains shown)
VH: B1 VH
VL: B1 VL
notes: also called defuc-5F11; defucosylated anti-CD30 antibody
